From publication PMC4720891

Biological target: HA-Mdm2 (human) (UniProt Q00987)
Sequence (Q00987 whole entry): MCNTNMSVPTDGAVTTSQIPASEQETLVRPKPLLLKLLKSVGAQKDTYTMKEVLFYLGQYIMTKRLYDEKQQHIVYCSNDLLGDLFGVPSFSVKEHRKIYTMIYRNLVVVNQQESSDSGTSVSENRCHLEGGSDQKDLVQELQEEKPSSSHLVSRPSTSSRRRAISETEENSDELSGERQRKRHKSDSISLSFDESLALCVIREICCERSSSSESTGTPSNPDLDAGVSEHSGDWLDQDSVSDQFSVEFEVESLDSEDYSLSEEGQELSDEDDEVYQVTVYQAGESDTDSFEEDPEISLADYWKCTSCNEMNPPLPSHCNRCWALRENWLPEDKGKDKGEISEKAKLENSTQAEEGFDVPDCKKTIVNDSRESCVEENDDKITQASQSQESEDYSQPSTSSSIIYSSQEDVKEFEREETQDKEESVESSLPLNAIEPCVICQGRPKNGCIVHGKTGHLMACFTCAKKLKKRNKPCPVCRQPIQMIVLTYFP

FRET (HTRF) signal of MdmX-stimulated Mdm2 autoubiquitination in vitro, against the baseline without MdmX; rises with MdmX concentration and with reaction time: 8 fold
B1: FLAG-MdmX (natural protein)
chain: MTSFSTSAQCSTSDSACRISPGQINQVRPKLPLLKILHAAGAQGEMFTVKEVMHYLGQYIMVKQLYDQQEQHMVYCGGDLLGELLGRQSFSVKDPSPLYDMLRKNLVTLATATTDAAQTLALAQDHSMDIPSQDQLKQSAEESSTSRKRTTEDDIPTLPTSEHKCIHSREDEDLIENLAQDETSRLDLGFEEWDVAGLPWWFLGNLRSNYTPRSNGSTDLQTNQDVGTAIVSDTTDDLWFLNESVSEQLGVGIKVEAADTEQTSEEVGKVSDKKVIEVGKNDDLEDSKSLSDDTDVEVTSEDEWQCTECKKFNSPSKRYCFRCWALRKDWYSDCSKLTHSLSTSDITAIPEKENEGNDVPDCRRTISAPVVRPKDAYIKKENSKLFDPCNSVEFLDLAHSSESQETISSMGEQLDNLSEQRTDTENMEDCQNLLKPCSLCEKRPRDGNIIHGRTGHLVTCFHCARRLKKAGASCPICKKEIQLVIKVFIA
